Earlier results on one substance are cited in PMC4962041.

In the data set the target is ubiquitin (UniProt P0CG48).

yDdi1 UBL, sequence (P40087 1-80): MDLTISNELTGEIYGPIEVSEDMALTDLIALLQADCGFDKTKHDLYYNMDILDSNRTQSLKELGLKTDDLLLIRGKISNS

For yDdi1 UBL (from UniProt P40087), the Kd is 45 µM.
